± gives the standard deviation of the averaged measurements or the uncertainty stated by the source.
What was measured:
[1] = duplex melting temperature (HRM, EvaGreen); higher = more stable duplex
Procedure: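 Listed DNA strand annealed 1:1 with its complementary strand (95 °C 5 min, 0.1 °C/s to 20 °C). Melted in 1x NNE buffer (500 mM NaCl, 10 mM Na2HPO4, 1 mM EDTA, pH 7.0) with 1x EvaGreen on a LightCycler96 (37 to 97 °C, 0.1 °C/s). Tm is the peak of -dF/dT at the stated total duplex concentration; 4 replicates are averaged. PS oligos are non-stereospecific (Rp/Sp mixtures).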

[2] = duplex formation enthalpy ΔH (Van't Hoff fit of HRM Tm); higher = less exothermic duplex formation; conditions: temperature for dG: 50 °C, NaCl: 500 mM (unadjusted)
Procedure: (§1)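 Duplex of the listed DNA strand with its complement, in 1x NNE buffer (500 mM NaCl, pH 7.0) with 1x EvaGreen. ΔH and ΔS come from a Van't Hoff linear fit of 1/Tm against ln(CT/4) over 1-20 uM, using HRM Tm values.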

[3] = duplex formation entropy ΔS (Van't Hoff fit of HRM Tm); higher = smaller entropy loss on duplex formation; conditions: temperature for dG: 50 °C, NaCl: 500 mM (unadjusted)
Procedure: as §1

[4] = duplex formation free energy ΔG50 (Van't Hoff fit of HRM Tm); higher = less stable duplex; conditions: temperature for dG: 50 °C, NaCl: 500 mM (unadjusted)
Procedure: as §1

[5] = duplex concentration 1 µM, backbone: PO-PO (both strands phosphodiester DNA)
[6] = duplex concentration 1 µM, backbone: PS-PS (both strands fully phosphorothioate)
[7] = duplex concentration 2.5 µM, backbone: PO-PO (both strands phosphodiester DNA)
[8] = duplex concentration 2.5 µM, backbone: PS-PO (listed strand fully phosphorothioate, complement phosphodiester)
[9] = duplex concentration 2.5 µM, backbone: PS-PS (both strands fully phosphorothioate)
[10] = duplex concentration 5 µM, backbone: PO-PO (both strands phosphodiester DNA)
[11] = duplex concentration 5 µM, backbone: PS-PO (listed strand fully phosphorothioate, complement phosphodiester)
[12] = duplex concentration 5 µM, backbone: PS-PS (both strands fully phosphorothioate)
[13] = duplex concentration 7.5 µM, backbone: PO-PO (both strands phosphodiester DNA)
[14] = duplex concentration 7.5 µM, backbone: PS-PO (listed strand fully phosphorothioate, complement phosphodiester)
[15] = duplex concentration 7.5 µM, backbone: PS-PS (both strands fully phosphorothioate)
[16] = duplex concentration 10 µM, backbone: PO-PO (both strands phosphodiester DNA)
[17] = duplex concentration 10 µM, backbone: PS-PO (listed strand fully phosphorothioate, complement phosphodiester)
[18] = duplex concentration 10 µM, backbone: PS-PS (both strands fully phosphorothioate)
[19] = duplex concentration 15 µM, backbone: PO-PO (both strands phosphodiester DNA)
[20] = duplex concentration 15 µM, backbone: PS-PO (listed strand fully phosphorothioate, complement phosphodiester)
[21] = duplex concentration 15 µM, backbone: PS-PS (both strands fully phosphorothioate)
[22] = duplex concentration 20 µM, backbone: PO-PO (both strands phosphodiester DNA)
[23] = duplex concentration 20 µM, backbone: PS-PO (listed strand fully phosphorothioate, complement phosphodiester)
[24] = duplex concentration 20 µM, backbone: PS-PS (both strands fully phosphorothioate)
[25] = backbone: PO-PO (both strands phosphodiester DNA)
[26] = backbone: PS-PO (listed strand fully phosphorothioate, complement phosphodiester)
[27] = backbone: PS-PS (both strands fully phosphorothioate)
[28] = duplex concentration 1 µM, backbone: PS-PO (listed strand fully phosphorothioate, complement phosphodiester)

Sequence | duplex melting temperature [1, 5] [°C] | duplex melting temperature [1, 6] [°C] | duplex melting temperature [1, 7] [°C] | duplex melting temperature [1, 8] [°C] | duplex melting temperature [1, 9] [°C] | duplex melting temperature [1, 10] [°C] | duplex melting temperature [1, 11] [°C] | duplex melting temperature [1, 12] [°C] | duplex melting temperature [1, 13] [°C] | duplex melting temperature [1, 14] [°C] | duplex melting temperature [1, 15] [°C] | duplex melting temperature [1, 16] [°C] | duplex melting temperature [1, 17] [°C] | duplex melting temperature [1, 18] [°C] | duplex melting temperature [1, 19] [°C] | duplex melting temperature [1, 20] [°C] | duplex melting temperature [1, 21] [°C] | duplex melting temperature [1, 22] [°C] | duplex melting temperature [1, 23] [°C] | duplex melting temperature [1, 24] [°C] | duplex formation enthalpy ΔH [2, 25] [kcal/mol] | duplex formation enthalpy ΔH [2, 26] [kcal/mol] | duplex formation enthalpy ΔH [2, 27] [kcal/mol] | duplex formation entropy ΔS [3, 25] [cal/mol/K] | duplex formation entropy ΔS [3, 26] [cal/mol/K] | duplex formation entropy ΔS [3, 27] [cal/mol/K] | duplex formation free energy ΔG50 [4, 25] [kcal/mol] | duplex formation free energy ΔG50 [4, 26] [kcal/mol] | duplex formation free energy ΔG50 [4, 27] [kcal/mol] | duplex melting temperature [1, 28] [°C]
TGTCGCACCCTACTA | 62.8 ± 2.6 | 49.8 ± 0.68 | 66.1 | 59.14 ± 0.13 | 53.99 ± 0.17 | 68.24 ± 0.43 | 61.72 ± 0.17 | 56.51 ± 0.21 | 69.66 ± 0.3 | 62.92 ± 0.17 | 57.65 ± 0.22 | 71.02 ± 0.2 | 64.01 ± 0.12 | 58.5 ± 0.23 | 72.66 ± 0.19 | 65.449 ± 0.05 | 59.67 ± 0.14 | 73.62 ± 0.15 | 66.44 ± 0.098 | 60.75 ± 0.17 | -63.3 ± 4.2 | -64.2 ± 1.2 | -60.7 ± 3.1 | -158 ± 12 | -165 ± 3.6 | -157 ± 9.5 | -12.1 ± 0.25 | -10.95 ± 0.05 | -9.838 ± 0.072 | 
TTAACCTGCAATGGATC | 60.19 ± 0.12 | 45.6 ± 0.62 | 63.2 ± 0.41 | 57.18 ± 0.21 | 48.62 ± 0.33 | 65.13 ± 0.59 | 59.09 ± 0.26 | 50.69 ± 0.37 | 66.57 ± 0.28 | 60.587 ± 0.046 | 51.91 ± 0.21 | 67.55 ± 0.2 | 61.376 ± 0.056 | 52.76 ± 0.14 | 68.98 ± 0.14 | 62.586 ± 0.015 | 54.03 ± 0.099 | 70.06 ± 0.25 | 63.32 ± 0.095 | 54.97 ± 0.2 | -68.7 ± 2 | -73.7 ± 2 | -67.1 ± 1.9 | -176 ± 5.8 | -195 ± 6.1 | -180 ± 5.8 | -11.83 ± 0.098 | -10.78 ± 0.066 | -8.858 ± 0.019 | 
CGGGATTTCTGGCATCATTGTCCT | 76 ± 0.48 | 59.9 ± 0.76 | 77.25 ± 0.45 | 69.22 ± 0.5 | 61.87 ± 0.59 | 78.194 ± 0.017 | 70.21 ± 0.48 | 63.36 ± 0.43 | 79.16 ± 0.14 | 70.82 ± 0.46 | 64.38 ± 0.25 | 79.99 ± 0.12 | 71.58 ± 0.27 | 65.03 ± 0.12 | 80.96 ± 0.077 | 72.42 ± 0.15 | 65.67 ± 0.24 | 81.6 ± 0.082 | 72.86 ± 0.12 | 66.1 ± 0.11 | -126 ± 7 | -141 ± 6.2 | -108 ± 3.9 | -332 ± 20 | -384 ± 18 | -294 ± 11 | -19 ± 0.58 | -17.1 ± 0.38 | -13 ± 0.16 | 67.9 ± 0.64
TCTCGCGGTTCCATTA | 62.7 ± 1.2 | 50.4 ± 1.6 | 67.08 ± 0.63 | 59.34 ± 0.38 | 54.64 ± 0.23 | 68.7 ± 0.86 | 61.95 ± 0.17 | 57.28 ± 0.084 | 70.24 ± 0.58 | 63.21 ± 0.18 | 58.48 ± 0.13 | 71.59 ± 0.45 | 64.2 ± 0.12 | 59.42 ± 0.15 | 73.26 ± 0.38 | 65.517 ± 0.063 | 60.81 ± 0.1 | 74.35 ± 0.18 | 66.61 ± 0.15 | 61.53 ± 0.15 | -61.4 ± 2.4 | -64.3 ± 1.7 | -59.3 ± 2.9 | -152 ± 7 | -165 ± 5.2 | -153 ± 8.8 | -12.1 ± 0.14 | -10.99 ± 0.07 | -9.954 ± 0.074 | 56.3
